Biological target: the molecule itself
Experiment: atomic force microscopy

B1: B. stearothermophilus tryptophanyl-tRNA synthetase (TrpRS) (enzyme, UniProt P00953 1-328, looked up)
chain: MKTIFSGIQPSGVITIGNYIGALRQFVELQHEYNCYFCIVDQHAITVWQDPHELRQNIRRLAAKYLAVGIDPTQATLFIQSEVPAHAQAAWMLQCIVYIGELERMTQFKEKSAGKEAVSAGLLTYPPLMAADILLYNTDIVPVGEDQKQHIELTRDLAERFNKRYGELFTIPEARIPKVGARIMSLVDPTKKMSKSDPNPKAYITLLDDAKTIEKKIKSAVTDSEGTIRYDKEAKPGISNLLNIYSTLSGQSIEELERQYEGKGYGVFKADLAQVVIETLRPIQERYHHWMESEELDRVLDEGAEKANRVASEMVRKMEQAMGLGRRR
Kd: 5 nM
